Substitutions are numbered along the chain they refer to.
B1: Wild-type PCNA (S. cerevisiae, encoded by POL30) (natural protein)
chain: MLEAKFEEASLFKRIIDGFKDCVQLVNFQCKEDGIIAQAVDDSRVLLVSLEIGVEAFQEYRCDHPVTLGMDLTSLSKILRCGNNTDTLTLIADNTPDSIILLFEDTKKDRIAEYSLKLMDIDADFLKIEELQYDSTLSLPSSEFSKIVRDLSQLSDSINIMITKETIKFVADGDIGSGSVIIKPFVDMEHPETSIKLEMDQPVDLTFGAKYLLDIIKGSSLSDRVGIRLSSEAPALFQFDLKSGFLQFFLAPKFNDEE
modifications: biotinylated when bound to the SPR chip (site not stated)
B2: PCNA-E143K (natural protein, S. cerevisiae)
chain: B1 chain with E143K
modifications: biotinylated when bound to the SPR chip (site not stated)
B3: PCNA-F254L (natural protein, S. cerevisiae)
chain: B1 chain with F254L
modifications: biotinylated when bound to the SPR chip (site not stated)
B4: PCNA-C22Y (natural protein, S. cerevisiae)
chain: B1 chain with C22Y
modifications: biotinylated when bound to the SPR chip (site not stated)
B5: PCNA-K217E (natural protein, S. cerevisiae)
chain: B1 chain with K217E
modifications: biotinylated when bound to the SPR chip (site not stated)
B6: PCNA-K13E (natural protein, S. cerevisiae)
chain: B1 chain with K13E
modifications: biotinylated when bound to the SPR chip (site not stated)
B7: PCNA-C81R (natural protein, S. cerevisiae)
chain: B1 chain with C81R
modifications: biotinylated when bound to the SPR chip (site not stated)
B8: PCNA-L68S (natural protein, S. cerevisiae)
chain: B1 chain with L68S
modifications: biotinylated when bound to the SPR chip (site not stated)

Target: the molecule itself
Assay: SEC

Binding result, binds:
B1, B2, B3, B4, B5, B6

target: Msh2-Msh6 (S. cerevisiae, UniProt P25847 1-964; Q03834 1-1242); assay: SPR
Sequence (P25847 whole entry, chain 1 of 2): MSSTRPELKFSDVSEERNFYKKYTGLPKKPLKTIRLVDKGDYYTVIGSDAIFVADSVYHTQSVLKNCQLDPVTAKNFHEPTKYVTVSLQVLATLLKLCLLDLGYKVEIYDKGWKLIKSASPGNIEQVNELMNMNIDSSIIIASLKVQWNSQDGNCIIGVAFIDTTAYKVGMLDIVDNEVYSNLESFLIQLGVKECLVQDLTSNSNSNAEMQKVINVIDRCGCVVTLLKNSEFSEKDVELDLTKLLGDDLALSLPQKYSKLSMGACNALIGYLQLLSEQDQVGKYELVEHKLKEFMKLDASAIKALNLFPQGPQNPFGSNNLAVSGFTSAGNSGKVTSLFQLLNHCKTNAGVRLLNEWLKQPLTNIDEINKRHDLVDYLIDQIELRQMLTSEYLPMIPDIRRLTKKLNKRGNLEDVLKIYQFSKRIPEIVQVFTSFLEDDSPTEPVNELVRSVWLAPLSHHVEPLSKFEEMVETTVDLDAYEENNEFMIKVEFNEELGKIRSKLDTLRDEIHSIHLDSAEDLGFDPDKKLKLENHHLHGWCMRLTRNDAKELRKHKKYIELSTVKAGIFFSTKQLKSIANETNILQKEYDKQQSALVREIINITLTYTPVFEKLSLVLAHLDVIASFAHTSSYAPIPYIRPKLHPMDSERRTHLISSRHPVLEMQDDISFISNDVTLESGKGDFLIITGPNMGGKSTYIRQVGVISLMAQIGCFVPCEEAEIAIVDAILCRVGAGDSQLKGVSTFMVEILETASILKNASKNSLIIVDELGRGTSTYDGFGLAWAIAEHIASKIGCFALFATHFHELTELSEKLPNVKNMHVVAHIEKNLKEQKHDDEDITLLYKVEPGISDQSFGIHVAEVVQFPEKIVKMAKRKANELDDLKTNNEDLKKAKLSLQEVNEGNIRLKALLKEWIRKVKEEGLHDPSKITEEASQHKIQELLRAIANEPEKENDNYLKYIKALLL
Sequence (Q03834 whole entry, chain 2 of 2): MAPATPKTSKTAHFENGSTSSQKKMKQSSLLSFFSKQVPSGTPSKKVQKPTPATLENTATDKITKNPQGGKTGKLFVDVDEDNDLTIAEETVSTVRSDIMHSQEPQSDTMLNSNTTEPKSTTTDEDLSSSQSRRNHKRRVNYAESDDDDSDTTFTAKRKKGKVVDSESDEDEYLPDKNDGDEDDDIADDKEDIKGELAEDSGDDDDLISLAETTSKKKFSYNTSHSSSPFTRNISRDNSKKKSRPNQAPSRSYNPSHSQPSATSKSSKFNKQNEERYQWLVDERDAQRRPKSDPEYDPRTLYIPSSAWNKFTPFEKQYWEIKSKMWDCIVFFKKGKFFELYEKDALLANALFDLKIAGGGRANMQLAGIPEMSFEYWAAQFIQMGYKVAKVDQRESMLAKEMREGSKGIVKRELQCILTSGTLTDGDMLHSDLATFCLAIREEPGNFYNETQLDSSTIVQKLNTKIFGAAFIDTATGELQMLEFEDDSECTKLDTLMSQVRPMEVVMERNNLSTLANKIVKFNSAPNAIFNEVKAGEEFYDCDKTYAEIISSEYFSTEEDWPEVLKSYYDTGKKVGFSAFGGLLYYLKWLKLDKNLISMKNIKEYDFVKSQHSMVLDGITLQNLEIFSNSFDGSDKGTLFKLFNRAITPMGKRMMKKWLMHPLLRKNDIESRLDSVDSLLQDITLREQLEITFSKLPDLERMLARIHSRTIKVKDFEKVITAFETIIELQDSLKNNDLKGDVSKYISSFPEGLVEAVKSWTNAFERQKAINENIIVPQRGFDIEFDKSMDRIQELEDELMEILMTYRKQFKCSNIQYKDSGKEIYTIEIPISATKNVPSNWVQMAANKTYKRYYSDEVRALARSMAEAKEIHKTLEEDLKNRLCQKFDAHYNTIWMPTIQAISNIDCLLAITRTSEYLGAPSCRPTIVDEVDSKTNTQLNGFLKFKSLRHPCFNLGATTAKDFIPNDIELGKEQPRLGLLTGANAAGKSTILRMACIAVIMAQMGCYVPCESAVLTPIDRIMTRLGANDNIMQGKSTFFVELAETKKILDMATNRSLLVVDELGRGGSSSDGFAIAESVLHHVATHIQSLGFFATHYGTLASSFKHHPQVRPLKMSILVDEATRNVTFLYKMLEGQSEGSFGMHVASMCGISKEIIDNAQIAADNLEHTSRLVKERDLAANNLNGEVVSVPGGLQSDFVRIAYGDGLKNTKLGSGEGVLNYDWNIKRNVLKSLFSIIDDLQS

Binding result, binds:
B1, B7, B2, B8, B3, B4, B5, B6

Source: article PMC4113420 (Molecular cell, 2014)
